Experimental findings from the DeepSol protein solubility set are described below.

This data set in a line: soluble on expression in E. coli; label from the status in PepcDB or PDB records.
Turning to “MGSDKIHHHHHHMTTRQPKTEADVLAETANLILDKYFHNQKNICTYDKIELARMLGLAEDNKKSDYALFHFIKALRYVVLGNFNEAINSYEATLRIPNSHAGILSNYATTLIILGELEQAKEMLIKCLNETDDGVSNLEYFANIIELYLLSTLDETLLQHAGNMKDSTLDKYSNILKLKTDINKIDISIQDYQEFTGVLIKFIFDKTRQIYQPRFSIDNGLDRQLNIEAFLNINPEEASYLNTEFRNQYLDYIFDNERHDLLGKFVVFFRQNKNREDGTEKPKAFYLGTNRELEA”, the “soluble on expression in E. coli” value was “not soluble”.

As for “GSPEFEFKQKYDYFRKKLKKPADIPNRFEMKLHRNNIFEESYRRIMSVKRPDVLKARLWIEFESEKGLDYGGVAREWFFLLSKEMFNPYYGLFEYSATDNYTLQINPNSGLCNEDHLSYFTFIGRVAGLAVFHGKLLDGFFIRPFYKMMLGKQITLNDMESVDSEYYNSLKWILENDPTELDLMFCIDEENFGQTYQVDLKPNGSEIMVTNENKREYIDLVIQWRFVNRVQKQMNAFLEGFTELLPIDLIKIFDENELELLMCGLGDVDVNDWRQHSIYKNGYCPNHPVIQWFWKAVLLMDAEKRIRLLQFVTGTSRVPMNGFAELYGSNGPQLFTIEQWGSPEKLPRAHTAFNRLDLPPYETFEDLREKLLMAVENAQGFEGVD”, the “soluble on expression in E. coli” value is “soluble”. As for “MGSDKIHHHHHHMQLKNVQRSYALTLGEKTGSTINVGVFAQKRAKKCTQAPLSIILELSRNKERIGAACTMNFTMDLPGLKGVKVTKMEEREDFIALHVEMPRTPHRCPSCGERTERIHDYRIQKVQHLKLFERWVYLFYRKRRYACRCGKRFAEKACFVERYQRQTVEWNQAFRLRLIQGKNFTDTANQFQTSVTTAMRRFDQLAAPLVKKVDHLPPRIAIDDYKGDTNAGKYQVIIADADTRKPLDILPDRKADTLKRYLQEKGHHVKTVVMDLSYTFKSAVQKALGHPLIIGDPFHFCRYIYWALEGVRRRVQKAFHPYHRKRCKRIKHLFQKEREGLDDKQKKKVERYLELSPDLREAYELKEHFRQWYQEAKMQGREGRMSEVKQGLYAFYRRVEASPLKEFHRAIQTLKNWQTEILNSFAFGLNNGFIEGLNNQTKVIKRNAFGFRRYDRLRNRILLHHQFKHQTFGVG”, the entry is “not soluble”; as for “MPFAHKVVMRTALYWEPLEDGKVKCKLCPLNCIINPEKRGSCKVRINIDGKLYTLNYGKVSSIALDPIEKKPLFHFWPGSCAFSIGTVGCNMHCKHCQNWEISQADESFPYLQDATPESIVRLARHYECESIAYTYNEPTIWYEFVLDTAKLAKKEGLNNILVTNGYINEEPFRELAKYIDAMNIDIKAFNDKFYMKISSVPSGEPSRRTAVIAKKEFGIHVELTYLIIPTLNDNEEEIRRFARWVVEELGDDTPVHFSRFFPHYKLLNLPPTPIQTLEKAYKIAKEEGLKFVYLGNVPGHEGENTYCPRCGKLLIERWGFEILRYEIKDGKCKYCGEQIPIVGEYQRKTYRGMWW”, “not soluble”; as for “MKIGVFDSGVGGLSVLKSLYEARLFDEIIYYGDTARVPYGVKDKDTIIKFCLEALDFFEQFQIDMLIIACNTASAYALDALRAKAHFPVYGVIDAGVEATIKALHDKNKEILVIATKATIKSEEYQKRLLSQGYTNINALATGLFVPMVEEGIFEGDFLQSAMEYYFKNITTPDALILACTHFPLLGRSLSKYFGDKTKLIHSGDAIVEFLKERENIDLKNHKAKLHFYASSDVESLKNTAKIWLNLLRK”, “not soluble”. As for “EQAPQYVDETISLSAKTLFGFDKDSLRAEAQDNLKVLAQRLSRTNIQSVRVEGHTDFMGSDKYNQALSERRAYVVANNLVSNGVPVSRISAVGLGESQAQMTQVCEAEVAKLGAKVSKAKKREALIACIEPDRRVDVKIRSIVTRQVVPAHNHHQHLEHHHHHH”, the entry is “soluble”; as for “MSVEGLGKDFCGAIIPDNFFPIEKLRNYTQMGLIRDFAKGSAVIMPGEEITSMIFLVEGKIKLDIIFEDGSEKLLYYAGGNSLIGKLYPTGNNIYATAMEPTRTCWFSEKSLRTVFRTDEDMIFEIFKNYLTKVAYYARQVAEMNTYNPTIRILRLFYELCSSQGKRVGDTYEITMPLSQKSIGEITGVHHVTVSRVLACLKRENILDKKKNKIIVYNLGELKHLSEQTSYYSDPNSSSVDKLAAALDHH”, “soluble”.
